Laboratory results as given in article PMC4188090, “Crystallization and preliminary X-ray diffraction analyses of the redox-controlled complex of terminal oxygenase and ferredoxin components in the Rieske nonhaem iron oxygenase carbazole 1,9a-dioxygenase” (Acta Crystallographica. Section F, Structural Biology …, 2014).

B1: terminal oxygenase (Oxy) component of carbazole 1,9a-dioxygenase (CARDO) from Janthinobacterium sp. J3, reduced state (enzyme, UniProt Q84II6 1-384, looked up)
chain: MANVDEAILKRVKGWAPYVDAKLGFRNHWYPVMFSKEINEGEPKTLKLLGENLLVNRIDGKLYCLKDRCLHRGVQLSVKVECKTKSTITCWYHAWTYRWEDGVLCDILTNPTSAQIGRQKLKTYPVQEAKGCVFIYLGDGDPPPLARDTPPNFLDDDMEILGKNQIIKSNWRLAVENGFDPSHIYIHKDSILVKDNDLALPLGFAPGGDRKQQTRVVDDDVVGRKGVYDLIGEHGVPVFEGTIGGEVVREGAYGEKIVANDISIWLPGVLKVNPFPNPDMMQFEWYVPIDENTHYYFQTLGKPCANDEERKKYEQEFESKWKPMALEGFNNDDIWAREAMVDFYADDKGWVNEILFESDEAIVAWRKLASEHNQGIQTQAHVSG
notes: terminal oxygenase component (Oxy) of carbazole 1,9a-dioxygenase, Janthinobacterium sp; J3; histidine-tagged; Holds a Rieske-type [2Fe-2S] cluster (reduced in this experiment) and a nonhaem iron centre; Trimer in the crystal; Construct as in earlier work (Ashikawa et al., 2005; Matsuzawa et al., 2013); also called Oxyred; reduced Oxy; source: E. coli BL21(DE3), purified (metal-chelation …)

How the values were obtained:
[1] = target: B1; assay: crystal structure; Oxyred and Fdox mixed in a 1:3 molar ratio with 10% glycerol, anaerobic, hanging-drop vapour diffusion at 293 K, 0.1 M sodium cacodylate pH 5.7, 14% (w/v) PEG 3350; dissolved crystals checked by SDS-PAGE and anti-His Western blot; data to 2.25 A, molecular replacement with PDB 2de5 (preliminary); conditions: both partners purified
[2] = target: the molecule itself; assay: as above

stoichiometry N [1] | Binder | stoichiometry N [2]
2 molecules of the Fd monomer per one Oxy trimer | ferredoxin (Fd) component of carbazole 1,9a-dioxygenase (CARDO) from Pseudomonas resinovorans CA10, oxidized state (natural protein, ferredoxin component (Fd) of carbazole 1,9a-dioxygenase, Pseudomonas resinovorans CA10; histidine-tagged; Holds a Rieske-type [2Fe-2S] cluster (oxidized in this experiment); Called a monomer in the crystal; Construct as in earlier work (Ashikawa et al., 2005; Matsuzawa et al., 2013); also called Fdox; oxidized Fd; source: E. coli BL21(DE3), purified (metal-chelation chromatography, gel filtration)) MNQIWLKVCAASDMQPGTIRRVNRVGAAPLAVYRVGDQFYATEDTCTHGIASLSEGTLDGDVIECPFHGGAFNVCTGMPASSPCTVPLGVFEVEVKEGEVYVAGEKK | 
 | B1 | 3
